One substance from US20170183403A1 can be followed below.

This test addresses T1, Reference peptide no. 48.
T1 sequence (peptide): PKLTRMLTFKFAMPK
In words: peptide microarray (RepliTope), Ala mutagenesis set.

Regarding NARA1 (antibody), the signal intensity after subtraction of control signal stood at 6200 AU.
